The text below walks through data of publication PMC5024086, “Fine-tuning of amino sugar homeostasis by EIIA^Ntr in Salmonella Typhimurium” (Scientific Reports, 2016).

Series [1] addresses GlmS in solution (SEC-MALS) (Salmonella Typhimurium) (UniProt Q8ZKX1). Kind of series: SEC-MALS; Superdex 200 10/300 GL, 20 mM Tris-HCl pH 8.0, 300 mM NaCl, 2 mg protein injected, 0.5 ml/min; proteins alone or in combination.
Series [2] concerns the molecule itself. The description is as above.

Take “EIIA^Ntr in solution (SEC-MALS) (natural protein)”: in series [1], the stoichiometry N (EIIA^Ntr per GlmS chain (1:2)) was found to be 0.5.

B1: GlmS in solution (SEC-MALS) (enzyme, Salmonella Typhimurium, UniProt Q8ZKX1 1-609, looked up)
chain: MCGIVGAIAQRDVAEILLEGLRRLEYRGYDSAGLAVVDAEGHMTRLRRLGKVQMLAQAAEEHPLHGGTGIAHTRWATHGEPSEANAHPHVSEHIVVVHNGIIENHEPLREALKARGYTFVSETDTEVIAHLVNWELKQGGTLREAVLRAIPQLRGAYGTVIMDTRHPDTLLAARSGSPLVIGLGMGENFIASDQLALLPVTRRFIFLEEGDIAEITRRSVNIFDNTGAEVKRQDIESNLQYDAGDKGIYRHYMQKEIYEQPNAIKNTLTGRISHGQVDLSELGPNADELLSKVEHIQILACGTSYNSGMVSRYWFESLAGIPCDVEIASEFRYRKSAVRRNSLMITLSQSGETADTLAGLRLSKELGYLGSLAICNVPGSSLVRESDLALMTNAGTEIGVASTKAFTTQLTVLLMLVAKLSRLKGLDASIEHDIVHGLQALPSRIEQMLSQDKRIELLAEDFSDKHHALFLGRGDQYPIALEGALKLKEISYIHAEAYAAGELKHGPLALIDADMPVIVVAPNNELLEKLKSNIEEVRARGGQLYVFADQDAGFVSNDNMHIIEMPHVEEVIAPIFYTVPLQLLAYHVALIKGTDVDQPRNLAKSVTVE
notes: D-glucosamine-6-phosphate synthase (GlmS), Salmonella Typhimurium; 128 kDa dimer by SEC-MALS; it may be the same as m7; also called GlmS dimer
As a reminder, the stoichiometry N is a count of units in the complex or per binding partner. With B1, the “stoichiometry N” value in series [2] came to 2.
